Experimental data from the supplement of paper PMC11246515.
± gives the standard deviation of the averaged measurements.

Test: total protein half-life in vivo (active degradation + dilution); higher = more stable protein
[1] = E. coli NCM3722 delta-clpP delta-lon delta-hslV, growth: N-lim chemostat, doubling time 6 h
[2] = wild type E. coli NCM3722, growth: C-lim chemostat, doubling time 3 h
[3] = wild type E. coli NCM3722, growth: C-lim chemostat, doubling time 6 h
[4] = wild type E. coli NCM3722, growth: C-lim chemostat, doubling time 12 h
[5] = wild type E. coli NCM3722, growth: N-lim chemostat, doubling time 6 h
[6] = wild type E. coli NCM3722, growth: N-lim chemostat, doubling time 12 h
[7] = wild type E. coli NCM3722, growth: P-lim chemostat, doubling time 12 h
[8] = E. coli NCM3722 delta-clpP, growth: N-lim chemostat, doubling time 6 h
[9] = E. coli NCM3722 delta-smpB, growth: N-lim chemostat, doubling time 6 h
[10] = wild type E. coli NCM3722, growth: P-lim chemostat, doubling time 6 h
[11] = E. coli NCM3722 delta-lon, growth: N-lim chemostat, doubling time 6 h
[12] = E. coli NCM3722 delta-hslV, growth: N-lim chemostat, doubling time 6 h

Sequence: MKLNATYIKIRDKWWGLPLFLPSLILPIFAHINTFAHISSGEVFLFYLPLALMISMMMFFSWAALPGIALGIFVRKYAELGFYETLSLTANFIIIIILCWGGYRVFTPRRNNVSHGDTRLISQRIFWQIVFPATLFLILFQFAAFVGLLASRENLVGVMPFNLGTLINYQALLVGNLIGVPLCYFIIRVVRNPFYLRSYYSQLKQQVDAKVTKKEFALWLLALGALLLLLCMPLNEKSTIFSTNYTLSLLLPLMMWGAMRYGYKLISLLWAVVLMISIHSYQNYIPIYPGYTTQLTITSSSYLVFSFIVNYMAVLATRQRAVVRRIQRLAYVDPVVHLPNVRALNRALRDAPWSALCYLRIPGMEMLVKNYGIMLRIQYKQKLSHWLSPLLEPGEDVYQLSGNDLALRLNTESHQERITALDSHLKQFRFFWDGMPMQPQIGVSYCYVRSPVNHIYLLLGELNTVAELSIVTNAPENMQRRGAMYLQRELKDKVAMMNRLQQALEHNHFFLMAQPITGMRGDVYHEILLRMKGENDELISPDSFLPVAHEFGLSSSIDMWVIEHTLQFMAENRAKMPAHRFAINLSPTSVCQARFPVEVSQLLAKYQIEAWQLIFEVTESNALTNVKQAQITLQHLQELGCQIAIDDFGTGYASYARLKNVNADLLKIDGSFIRNIVSNSLDYQIVASICHLARMKKMLVVAEYVENEEIREAVLSLGIDYMQGYLIGKPQPLIDTLNEIEPIRESA
- total protein half-life in vivo [1]: 5.56 h
- total protein half-life in vivo [2]: 2.98 h
- total protein half-life in vivo [3]: 5.24 h
- total protein half-life in vivo [4]: 9.12 h
- total protein half-life in vivo [5]: 4.99 h
- total protein half-life in vivo [6]: 6.22 h
- total protein half-life in vivo [7]: 11.5 h

Sequence: MKLRLSALALGTTLLVGCASSGTDQQGRSDPLEGFNRTMYNFNFNVLDPYIVRPVAVAWRDYVPQPARNGLSNFTGNLEEPAVMVNYFLQGDPYQGMVHFTRFFLNTILGMGGFIDVAGMANPKLQRTEPHRFGSTLGHYGVGYGPYVQLPFYGSFTLRDDGGDMADGFYPVLSWLTWPMSVGKWTLEGIETRAQLLDSDGLLRQSSDPYIMVREAYFQRHDFIANGGELKPQENPNAQAIQDDLKDIDSE
- total protein half-life in vivo [1]: 6.54 ± 0.28 h
- total protein half-life in vivo [8]: 6.05 ± 0.062 h
- total protein half-life in vivo [9]: 5.99 ± 0.31 h
- total protein half-life in vivo [2]: 3.153 ± 0.018 h
- total protein half-life in vivo [3]: 6.61 ± 1.3 h
- total protein half-life in vivo [4]: 13.9 ± 0.49 h
- total protein half-life in vivo [5]: 6.37 ± 0.039 h
- total protein half-life in vivo [6]: 12.59 ± 0.014 h
- total protein half-life in vivo [10]: 5.98 ± 0.64 h
- total protein half-life in vivo [7]: 13.4 ± 0.97 h

Sequence: MKLSTCCAALLLALASPAVLAAPGSCERIQSDISQRIINNGVPESSFTLSIVPNDQVDQPDSQVVGHCANDTHKILYTRTTSGNVSAPAQSSQDGAPAEPQ
- total protein half-life in vivo [8]: 6.13 h
- total protein half-life in vivo [11]: 6.79 h
- total protein half-life in vivo [9]: 4.61 h
- total protein half-life in vivo [2]: 3.25 h
- total protein half-life in vivo [3]: 6.33 h
- total protein half-life in vivo [5]: 5.52 h
- total protein half-life in vivo [6]: 11.6 ± 1.9 h
- total protein half-life in vivo [10]: 5.94 ± 0.1 h
- total protein half-life in vivo [7]: > 16 h

Sequence: MKLVTVIIKPFKLEDVREALSSIGIQGLTVTEVKGFGRQKGHAELYRGAEYSVNFLPKVKIDVAIADDQLDEVIDIVSKAAYTGKIGDGKIFVAELQRVIRIRTGEADEAAL [P0AC55]
- total protein half-life in vivo [8]: 5.2 ± 0.45 h
- total protein half-life in vivo [12]: 5.45 ± 0.14 h
- total protein half-life in vivo [11]: 5.044 ± 0.034 h
- total protein half-life in vivo [9]: 4.83 ± 0.068 h
- total protein half-life in vivo [2]: > 4 h
- total protein half-life in vivo [3]: 7.02 h
- total protein half-life in vivo [5]: 5.43 ± 0.42 h
- total protein half-life in vivo [6]: 8.82 ± 0.72 h
- total protein half-life in vivo [7]: 13.6 ± 2.6 h

Sequence: MKLYIYDHCPYCLKARMIFGLKNIPVELHVLLNDDAETPTRMVGQKQVPILQKDDSRYMPESMDIVHYVDKLDGKPLLTGKRSPAIEEWLRKVNGYANKLLLPRFAKSAFDEFSTPAARKYFVDKKEASAGNFADLLAHSDGLIKNISDDLRALDKLIVKPNAVNGELSEDDIQLFPLLRNLTLVAGINWPSRVADYRDNMAKQTQINLLSSMAI [P0AC59]
- total protein half-life in vivo [8]: 5.06 ± 0.73 h
- total protein half-life in vivo [12]: 5.49 ± 0.35 h
- total protein half-life in vivo [11]: 5.77 ± 0.24 h
- total protein half-life in vivo [9]: 5.01 ± 0.41 h
- total protein half-life in vivo [3]: 5.57 ± 0.23 h
- total protein half-life in vivo [4]: 11.7 ± 1.8 h
- total protein half-life in vivo [5]: 5.02 ± 0.15 h
- total protein half-life in vivo [6]: 9.43 ± 0.3 h
- total protein half-life in vivo [10]: 5.33 ± 0.55 h
- total protein half-life in vivo [7]: 11.9 ± 0.21 h

Sequence: MKLYNLKDHNEQVSFAQAVTQGLGKNQGLFFPHDLPEFSLTEIDEMLKLDFVTRSAKILSAFIGDEIPQEILEERVRAAFAFPAPVANVESDVGCLELFHGPTLAFKDFGGRFMAQMLTHIAGDKPVTILTATSGDTGAAVAHAFYGLPNVKVVILYPRGKISPLQEKLFCTLGGNIETVAIDGDFDACQALVKQAFDDEELKVALGLNSANSINISRLLAQICYYFEAVAQLPQETRNQLVVSVPSGNFGDLTAGLLAKSLGLPVKRFIAATNVNDTVPRFLHDGQWSPKATQATLSNAMDVSQPNNWPRVEELFRRKIWQLKELGYAAVDDETTQQTMRELKELGYTSEPHAAVAYRALRDQLNPGEYGLFLGTAHPAKFKESVEAILGETLDLPKELAERADLPLLSHNLPADFAALRKLMMNHQ
- total protein half-life in vivo [1]: 5.07 ± 0.61 h
- total protein half-life in vivo [8]: 4.78 ± 0.058 h
- total protein half-life in vivo [12]: 5.09 ± 0.18 h
- total protein half-life in vivo [11]: 5.28 ± 0.25 h
- total protein half-life in vivo [9]: 4.57 ± 0.11 h
- total protein half-life in vivo [2]: 3.25 ± 0.27 h
- total protein half-life in vivo [3]: 6.01 ± 0.15 h
- total protein half-life in vivo [4]: 11.9 ± 0.91 h
- total protein half-life in vivo [5]: 4.989 ± 0.048 h
- total protein half-life in vivo [6]: 8.57 ± 0.57 h
- total protein half-life in vivo [10]: 5.76 ± 0.32 h
- total protein half-life in vivo [7]: 11.9 ± 0.51 h

Sequence: MKMANHPRPGDIIQESLDELNVSLREFARAMEIAPSTASRLLTGKAALTPEMAIKLSVVIGSSPQMWLNLQNAWSLAEAEKTVDVSRLRRLVTQ
- total protein half-life in vivo [1]: 3.73 ± 0.35 h
- total protein half-life in vivo [9]: 1.217 ± 0.0059 h
- total protein half-life in vivo [2]: 1.58 h
- total protein half-life in vivo [3]: 2.32 h
- total protein half-life in vivo [4]: 2.59 h
- total protein half-life in vivo [7]: 3.05 ± 1.1 h

Sequence: MKMLRDPLFWLIALFVALIFWLPYSQPLFAALFPQLPRPVYQQESFAALALAHFWLVGISSLFAVIIGTGAGIAVTRPWGAEFRPLVETIAAVGQTFPPVAVLAIAVPVIGFGLQPAIIALILYGVLPVLQATLAGLGAIDASVTEVAKGMGMSRGQRVRKVELPLAAPVILAGVRTSVIINIGTATIASTVGASTLGTPIIIGLSGFNTAYVIQGALLVALAAIIADRLFERLVQALSQHAK
- total protein half-life in vivo [6]: 5.89 h

Sequence: MKNDVISPEFDENGRPLRRIRSFVRRQGRLTKGQEHALENYWPVMGVEFSEDMLDFPALFGREAPVTLEIGFGMGASLVAMAKDRPEQDFLGIEVHSPGVGACLASAHEEGLSNLRVMCHDAVEVLHKMIPDNSLRMVQLFFPDPWHKARHNKRRIVQVPFAELVKSKLQLGGVFHMATDWEPYAEHMLEVMSSIDGYKNLSESNDYVPRPASRPVTKFEQRGHRLGHGVWDLMFERVK [P0A8I5]
- total protein half-life in vivo [1]: 5.11 ± 0.029 h
- total protein half-life in vivo [8]: 4.82 h
- total protein half-life in vivo [12]: 7.09 h
- total protein half-life in vivo [9]: 4.18 ± 0.61 h
- total protein half-life in vivo [2]: 2.73 h
- total protein half-life in vivo [3]: 4.88 ± 0.4 h
- total protein half-life in vivo [4]: 8.12 ± 0.26 h
- total protein half-life in vivo [5]: 4.58 ± 0.17 h
- total protein half-life in vivo [6]: 7.49 ± 1.2 h
- total protein half-life in vivo [10]: 3.77 h
- total protein half-life in vivo [7]: 8.11 ± 0.11 h
